Results as given in patent publication US20180030137A1 (ADURO BIOTECH HOLDINGS EUROPE B V, published 2018).

Legend:
[1] = biological target: T1, Human PD-1 (Swiss-Prot entry Q15116), full length, on cells (human, UniProt Q15116 21-288); assay: CELISA on CHO-K1.hPDCD1 cells
T1 construct: Full length open reading frame of hPD-1 stably expressed on CHO-K1 cells; also endogenous PD-1 on CD3/CD28-stimulated human CD3+ T cells and PD-1 on transfected Jurkat cells; also called hPD-1; hPDCD1
Protocol: To further characterize these mutant hPD-1 antibodies they were tested for binding to hPD-1 in CELISA format using CHO-K1 cells (American Type Culture Collection, Manassas, Va.), stably transfected with cDNA encoding the full length open reading frame of hPDCD1 (hPD-1), subcloned into the pCI-neo vector (Promega). Parental CHO-K1 or CHO-K1.hPDCD1 cells were seeded in culture medium (DMEM-F12 (Gibco) with 10% Fetal Bovine Serum (Hyclone) and Pen/Strep (Gibco)) in tissue culture plates and incubated for 48 hours at 37° C. Subsequently culture medium was removed and cells were incubated for 1 hour at 37° C. with the mutant hPD-1 antibodies (10 μg/ml (=66 nM) and dilutions thereof). Next, cells were washed with Phosphate-Buffered Saline/0.05% Tween (PBST) and incubated for 1 hour at 37° C. with Goat-anti-human IgG-HRP (Southern Biotech). Subsequently, cells were washed 3 times with PBST and anti-hPD1 immunoreactivity was visualized with 100 al TMB Stabilized Chromagen (Invitrogen). Reactions were stopped with 100 al 0.5 M H2SO4 and absorbances were read at 450 and 610 nm. […] Blockade of hPD-L1 binding by the mutant hPD-1 antibodies was tested in CELISA format. […] Reactions were stopped with 100 al 0.5 M H2SO4 and absorbances were read at 450 and 610 nm. Calculated IC50 values in Table 12 for the blockade of hPD-L1 represent the concentration at which half of the inhibition is observed.

[2] = biological target: T2, Macaca fascicularis PD-1 (Swiss-Prot entry B0LAJ3), full length, on cells (Macaca fascicularis, UniProt Q15116 25-288 (human entry)); assay: CELISA on CHO-K1 cells transiently transfected with cyno PD-1
T2 construct: Full length open reading frame transiently expressed on CHO-K1 cells; also endogenous PD-1 on CD3/CD28-stimulated cynomolgus PBMCs; No signal peptide limits are stated for the cynomolgus entry; also called cyno PD-1; cynomolgus PD-1
T2 chain: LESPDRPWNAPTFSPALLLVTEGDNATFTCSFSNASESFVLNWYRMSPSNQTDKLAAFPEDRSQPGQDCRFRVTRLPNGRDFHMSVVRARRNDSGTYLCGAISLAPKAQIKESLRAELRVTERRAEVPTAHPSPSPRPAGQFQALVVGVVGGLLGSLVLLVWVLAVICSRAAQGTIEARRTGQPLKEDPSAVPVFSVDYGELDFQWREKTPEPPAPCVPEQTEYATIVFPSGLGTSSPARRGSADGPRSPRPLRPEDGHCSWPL
Protocol: Parental CHO-K1 or CHO-K1.cynoPD1 cells were seeded in tissue culture plates and incubated for 48 hours at 37° C. Subsequently culture medium was removed and cells were incubated for 1 hour with purified hPD-1 antibodies (10 μg/ml (=66 nM) and dilutions thereof) at 37° C. Next, cells were washed with PBST and incubated for 1 hour at 37° C. with Goat-anti-human (Jackson Immuno Research). Subsequently, cells were washed 3 times with PBST and anti-hPD1 immunoreactivity was visualized with 100 μL TMB Stabilized Chromagen (Invitrogen). Reactions were stopped with 100 μL 0.5 M H2SO4 and absorbances were read at 450 and 610 nm.

[3] = biological target: T1, Human PD-1 (Swiss-Prot entry Q15116), …; assay: CELISA on CHO-K1.hPDCD1 cells; blocking of biotinylated hPD-L2 Fc
Protocol: Parental CHO-K1 or CHO-K1.hPDCD1 cells were seeded in tissue culture plates and incubated for 72 hours at 37° C. in culture medium. […] Cells were then washed three times with PBST followed by addition of Streptavidin-HRP conjugate on the cells, which was incubated for 1 hour at 37° C. […] Reactions were stopped with 100 al 0.5 M H₂SO₄ and absorbances were read at 450 and 610 nm. […] Calculated IC50 values represent the concentration at which half of the inhibition is observed.

[4] = biological target: T3, hPD-1/Fc fusion protein (R&D Systems) (human, UniProt Q15116 25-167); assay: BLI (Octet RED96), hPD-1/Fc amine-coupled, IgG in solution, 1:1 global fit
T3 construct: Bought reagent; also called Recombinant hPD-1/Fc; not shown: Fc part of the bought fusion protein
T3 sequence (Q15116 25-167 limits assumed): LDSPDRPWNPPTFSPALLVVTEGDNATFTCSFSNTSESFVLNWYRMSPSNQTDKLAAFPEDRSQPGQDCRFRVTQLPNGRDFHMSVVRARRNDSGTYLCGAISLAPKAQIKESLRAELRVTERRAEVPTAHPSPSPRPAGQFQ
Protocol: This assay was, performed by coupling hPD-1/Fc fusion protein (R&D Systems) to amine-reactive second generation biosensors (Fortebio) using standard amine chemistry. […] Amine-reactive biosensors were pre-wet by immersing them in wells containing 0.1M MES pH=5.5 for 10 minutes. The biosensors were then activated using a 0.1M NHS/0.4M EDC mixture for 5 minutes. hPD-1/Fc fusion protein was coupled by immersing the biosensors in a solution of 12 ug/mL hPD-1/Fc in 0.1 M MES for 7.5 minutes. The biosensor surface was quenched using a solution of 1M ethanolamine for 5 minutes. Biosensors were equilibrated in Octet kinetics buffer (ForteBio) for 5 minutes. […] Dissociation was measured after transfer of the biosensors into kinetics buffer and monitoring of the interferometry signal for 45 minutes. The assay was run with a plate temperature of 30° C. The observed on and off rates (kobs and kd) were fit using a 1:1 binding global fit model comprising all concentrations tested, and the equilibrium binding constant KD was calculated.

[5] = biological target: T1, Human PD-1 (Swiss-Prot entry Q15116), …; assay: flow cytometry, Binding (%), on anti-CD3/anti-CD28 stimulated human CD3+ T cells, donor #2
Protocol: (§1) Cells were stored in liquid nitrogen and retrieved from the freezer on the day of the experiment. Since endogenous expression of hPD-1 on resting T cells is low, the thawed CD3+ T cells were stimulated with αCD3/αCD28 coated beads (Gibco) for 48 hours.

[6] = biological target: T1, Human PD-1 (Swiss-Prot entry Q15116), …; assay: flow cytometry on CD3/CD28-stimulated human CD3+ T cells, three donors; CD3/CD28 stimulated human T cells, three donors
Protocol: as §1

T1 sequence (Q15116 21-288, one chain of several): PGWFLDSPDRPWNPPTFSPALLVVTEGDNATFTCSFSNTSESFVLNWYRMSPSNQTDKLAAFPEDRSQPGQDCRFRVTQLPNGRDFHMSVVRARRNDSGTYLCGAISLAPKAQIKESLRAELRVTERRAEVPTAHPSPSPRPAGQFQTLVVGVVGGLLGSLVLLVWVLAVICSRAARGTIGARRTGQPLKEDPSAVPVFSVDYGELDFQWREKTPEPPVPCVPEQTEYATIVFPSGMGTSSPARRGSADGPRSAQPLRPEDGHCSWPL

EC50 [1]: 0.13 nM
EC50 [2]: 0.45 nM
IC50 [3]: 0.61 nM
Kd [4]: 0.011 nM
koff [4]: 9.2e-06 s⁻¹
kon [4]: 860000 M⁻¹ s⁻¹
EC50 (read off the curve) [5]: ~0.2 nM
EC50 [6]: 0.27 nM
B1: hPD1.29H5L4 (antibody, V domains shown)
VH: EVQLVQSGAEVKKPGASVKVSCKASGYIFTTYYIHWVKQAPGKGLEWIGWIFPGDVSTQYNEKFQDKATITVDKSASTAYMQLSSLRSEDTAVYYCTREAYDYAVYWGQGTLVTVSS
VL: DIQMTQAPSSLSASVGDRVTITCKASQNVDTNVAWFQQKPGKAPKSLIFSASYRYSGVPSRFSGSGSGTDFTLTISSLQPEDFATYYCQQYNNYPFTFGGGTKLEIK
notes: Expressed as human IgG4, kappa with the stabilizing S241P (Kabat) hinge mutation in HEK293 cells; also called humanized PD-1 antibody hPD1.29H5L4
